Reference: patent US20230103885A1 (CRISPR THERAPEUTICS, published 2023)

Key:
[1] = target: T1, irrelevant His-tagged protein; experiment: indirect ELISA, purified native antibody at 1,000 ng/ml (1:1,000)
T1 construct: also called coating antigen C
Experimental: (§1) In the first (native) method, hybridoma cells (29E4B5) were cultured in low IgG culture medium in a roller bottle for 10 days. The supernatants were collected and protein A purified to obtain purified antibodies. The purified antibodies were analyzed for the ability to bind the FMC63-scFv protein and anti-CD19 CAR T cells using ELISA (Table 8).
(§2) A: Recombinant FMC63-scFv protein B: […] (FMC63-scFv linker peptide)(SEQ ID NO: 6) C: His-tagged protein D: Total human IgG The titer was the highest dilution where the Signal/Blank (S/B) ratio was ≥2.1. OD₄₅₀ for Blank was the average of two technical replicates. The starting concentration was 1 mg/ml, and the corresponding dilution ratio was calculated based on the actual concentration.

[2] = target: T2, Recombinant FMC63-scFv protein; experiment: as above
T2 construct: also called His-tagged single-chain variable fragment of mouse anti-human CD19 antibody FMC63; coating antigen A
T2 sequence (scFv, as listed by the source): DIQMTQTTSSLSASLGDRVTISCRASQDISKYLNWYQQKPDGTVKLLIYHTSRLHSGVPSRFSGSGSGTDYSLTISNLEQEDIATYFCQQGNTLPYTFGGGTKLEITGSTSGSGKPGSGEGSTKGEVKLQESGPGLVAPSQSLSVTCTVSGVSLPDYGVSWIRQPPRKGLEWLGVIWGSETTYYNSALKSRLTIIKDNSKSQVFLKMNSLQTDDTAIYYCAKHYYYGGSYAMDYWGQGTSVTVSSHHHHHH
Experimental: as §1, §2

[3] = target: T3, FMC63-scFv linker peptide; experiment: as above
T3 construct: also called coating antigen B
T3 peptide: TGSTSGSGKPGSGEGSTKG
Experimental: as §1, §2

Total human IgG [4] = target: T4, Total human IgG (human); experiment: as above
T4 construct: also called coating antigen D
Experimental: as §1, §2

[5] = target: T1, irrelevant His-tagged protein; experiment: indirect ELISA, purified native antibody at 7.81 ng/ml (1:128,000)
Experimental: as §1, §2

[6] = target: T3, FMC63-scFv linker peptide; experiment: as above
Experimental: as §1, §2

Total human IgG [7] = target: T4, Total human IgG; experiment: as above
Experimental: as §1, §2

[8] = target: T1, irrelevant His-tagged protein; experiment: indirect ELISA, purified native antibody at 62.50 ng/ml (1:16,000)
Experimental: as §1, §2

[9] = target: T2, Recombinant FMC63-scFv protein; experiment: as above
Experimental: as §1, §2

[10] = target: T3, FMC63-scFv linker peptide; experiment: as above
Experimental: as §1, §2

Total human IgG [11] = target: T4, Total human IgG; experiment: as above
Experimental: as §1, §2

[12] = target: T1, irrelevant His-tagged protein; experiment: indirect ELISA, purified native antibody at 1.95 ng/ml (1:512,000)
Experimental: as §1, §2

[13] = target: T2, Recombinant FMC63-scFv protein; experiment: as above
Experimental: as §1, §2

[14] = target: T3, FMC63-scFv linker peptide; experiment: as above
Experimental: as §1, §2

Total human IgG [15] = target: T4, Total human IgG; experiment: as above
Experimental: as §1, §2

[16] = target: T1, irrelevant His-tagged protein; experiment: indirect ELISA, subclone culture supernatant on coated antigen
[17] = target: T2, Recombinant FMC63-scFv protein; experiment: as above
[18] = target: T3, FMC63-scFv linker peptide; experiment: as above
Total human IgG [19] = target: T4, Total human IgG; experiment: as above
[20] = target: T5, anti-CD19 CAR comprising the anti-CD19 scFv of SEQ ID NO:1; experiment: flow cytometry on anti-CD19 CAR T cells, dilution 1:50
T5 construct: also called anti-CD19 chimeric antigen receptor; anti-CD19 CAR T cells
Description: (§3) The 29E4B5 antibodies produced using the first or the second method were compared with a reference anti-FMC63-scFv antibody (rec_mab3) for the ability to bind to the anti-CD19 CAR T cells using flow cytometry. Both methods produced 29E4B5 antibodies with higher affinity to the anti-CD19 cells than rec_mab3, showing higher CAR positive percentage even at 1:6,400 dilutions (Table 9).

[21] = target: T5, anti-CD19 CAR comprising the anti-CD19 …; experiment: flow cytometry on anti-CD19 CAR T cells, dilution 1:1600
Description: as §3

[22] = target: T1, irrelevant His-tagged protein; experiment: indirect ELISA, purified native antibody at 125 ng/ml (1:8,000)
Experimental: as §1, §2

[23] = target: T2, Recombinant FMC63-scFv protein; experiment: as above
Experimental: as §1, §2

[24] = target: T3, FMC63-scFv linker peptide; experiment: as above
Experimental: as §1, §2

Total human IgG [25] = target: T4, Total human IgG; experiment: as above
Experimental: as §1, §2

[26] = target: T5, anti-CD19 CAR comprising the anti-CD19 …; experiment: flow cytometry on anti-CD19 CAR T cells, dilution 1:100
Description: as §3

B1: mouse anti-FMC63-scFv monoclonal antibody 29E4B5 (antibody, mouse IgG1, kappa, V domains shown)
VH: EVKLLQSGGGLVQPGGSLKLSCAASGIDFSRYWMSWVRRAPGKGLEWIGEINLDSSTKNYAPSLKDKFIISRDNAKNTLYLQMSKVRSEDTALYYCARNYVGMDYWGQGTSVTVSS
VL: DIVLTQSPASLAVSLGQRATISCRASKSVSSSDYTYMHWYQQKPGQPPKLLIYLASNLESGVPARFSGSGSGTDFTLNIHPVEEEDAATYYCQHSRELPPTFGGGTKLEIKR
notes: Hybridoma-derived antibody (culture supernatant, microscale purified, or protein A purified native lot), isotype IgG1, kappa; These are left out by the residue ranges; also called 29E4B5-1; 29E4B5-1 (Native)
[1]
  OD450: 0.059 OD450
[2]
  OD450: 1.88 OD450
[3]
  OD450: 0.064 OD450
Total human IgG [4]
  OD450: 0.073 OD450
[5]
  OD450: 0.06 OD450
[6]
  OD450: 0.076 OD450
Total human IgG [7]
  OD450: 0.064 OD450
[8]
  OD450: 0.051 OD450
[9]
  OD450: 1.71 OD450
[10]
  OD450: 0.075 OD450
Total human IgG [11]
  OD450: 0.071 OD450
[12]
  OD450: 0.085 OD450
[13]
  OD450: 0.245 OD450
[14]
  OD450: 0.077 OD450
Total human IgG [15]
  OD450: 0.076 OD450
[16]
  OD450 nm: 0.201 OD450
[17]
  OD450 nm: 1.5 OD450
[18]
  OD450 nm: 0.087 OD450
Total human IgG [19]
  OD450 nm: 0.178 OD450
[20]
  % CAR+: 70.1%
[21]
  % CAR+: 67.9%
[22]
  OD450: 0.057 OD450
[23]
  OD450: 1.79 OD450
[24]
  OD450: 0.059 OD450
Total human IgG [25]
  OD450: 0.069 OD450
[26]
  % CAR+: 69.2%
